The data set concerns the molecule itself. As to the kind of experiment: SEC. For orientation: SEC sorts molecules by how far they enter the pores of the column.

The record followed here is PMC3621117 (The FEBS journal, 2013).

A word on the stoichiometry N: it is a count of units in the complex or per binding partner.

B1: wild-type ExsD (natural protein)
chain: VVGSDARSRGRVPGYASSSLYRESGIISARQLALLQRMLPRLRLEQLFRCEWLQQRLARGLALGREEVRQILLCAAQDDDGWCSELGDRVNLAVPQSMIDWVLLPVYGWWESLLDQAIPGWRLSLVELETQSRQLRVKSEFWSRVAELEPEQAREELARVAKCQARTQEQVAELAGKLETASALAKSAWPNWQRGMATLLASGGLAGFEPIPEVLECLWQPLCRLDDDVGAADAVQAWLHERNLCQAQDHFYWQS
Consider B1, for which the “stoichiometry N” value worked out at 3.
